According to patent US20260049137A1 (JANUX THERAPEUTICS, published 2026):
Where two headings read alike, the source gives them in different places.

Key:
[1] = target: T1, TROP2 on TROP2 positive NCI-H292 or HCT116 tumor cells (UniProt P09758 27-323, limits assumed); experiment: cell-based or functional assay
T1 sequence (looked up): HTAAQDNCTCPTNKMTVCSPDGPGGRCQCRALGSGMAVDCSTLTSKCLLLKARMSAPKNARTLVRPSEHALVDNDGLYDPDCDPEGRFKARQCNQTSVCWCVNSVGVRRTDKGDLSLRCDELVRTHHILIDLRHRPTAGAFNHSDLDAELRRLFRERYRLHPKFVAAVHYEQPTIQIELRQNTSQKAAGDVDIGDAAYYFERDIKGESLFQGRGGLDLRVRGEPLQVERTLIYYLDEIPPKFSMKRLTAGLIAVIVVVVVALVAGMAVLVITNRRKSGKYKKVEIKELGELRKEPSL

[2] = target: T1, TROP2 on TROP2 positive NCI-H292 or …; experiment: cell-based or functional assay; remark: listed apart in the source
[3] = target: T1, TROP2 on TROP2 positive NCI-H292 or …; experiment: cell-based or functional assay; remark: listed apart in the source
[4] = target: T1, TROP2 on TROP2 positive NCI-H292 or …; experiment: cell-based or functional assay; remark: listed apart in the source
[5] = target: T1, TROP2 on TROP2 positive NCI-H292 or …; experiment: cell-based or functional assay; remark: listed apart in the source
[6] = target: T2, cynomolgus monkey TROP2 on recombinant HEK293 cells (cynomolgus monkey, UniProt A0A2K5UE71 27-323); experiment: cell-based or functional assay
T2 sequence: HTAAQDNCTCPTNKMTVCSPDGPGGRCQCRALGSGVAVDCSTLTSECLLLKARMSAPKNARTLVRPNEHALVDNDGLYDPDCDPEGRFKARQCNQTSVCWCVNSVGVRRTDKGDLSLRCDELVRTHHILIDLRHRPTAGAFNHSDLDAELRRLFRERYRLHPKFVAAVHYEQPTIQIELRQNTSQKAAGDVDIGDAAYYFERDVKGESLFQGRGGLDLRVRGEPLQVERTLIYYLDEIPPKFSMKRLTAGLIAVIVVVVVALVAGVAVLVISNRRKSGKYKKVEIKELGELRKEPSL

[7] = target: T3, human CD3ε-biotin (biotinylated CD3ε) (human, UniProt P07766 23-126, limits assumed, biotinylated); experiment: ELISA: biotinylated CD3 captured on neutravidin coated plates, HRP secondary antibody, OD 450 nm
T3 construct: also called CD3e-bio; CD3e-biotin
Experimental: (§1) The TCE constructs diluted in buffer were then added to the antigen coated plates. Binding was detected using a standard horse radish peroxidase secondary antibody. The concentration of the TCE required to achieve 50% maximal signal (EC₅₀) was calculated using Graphpad Prism software.

[8] = target: T4, human TROP2-biotin (biotinylated TROP2) (human, UniProt P09758 27-274, limits assumed, biotinylated); experiment: ELISA: biotinylated TROP2 captured on neutravidin coated plates, HRP secondary antibody, OD 450 nm
T4 construct: also called hTROP2-Biotin
T4 sequence (looked up): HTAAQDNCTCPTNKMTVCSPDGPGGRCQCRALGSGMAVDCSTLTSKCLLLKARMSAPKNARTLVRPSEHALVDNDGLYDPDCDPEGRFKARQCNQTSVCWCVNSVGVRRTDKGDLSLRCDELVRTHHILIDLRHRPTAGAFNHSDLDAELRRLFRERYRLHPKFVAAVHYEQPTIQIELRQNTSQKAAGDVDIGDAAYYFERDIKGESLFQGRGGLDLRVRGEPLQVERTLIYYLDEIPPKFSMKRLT
Experimental: as §1

T3 sequence (P07766 23-126 limits assumed): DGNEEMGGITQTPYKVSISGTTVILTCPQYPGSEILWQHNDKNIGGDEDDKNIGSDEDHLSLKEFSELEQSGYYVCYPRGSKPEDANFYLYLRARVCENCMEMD

B1: TCE-1: anti-CD3 scFv wt + linker + anti-TROP2 HC wt, with anti-TROP2 LC wt (bispecific antibody)
light: DIQLTQSPSSLSASVGDRVSITCKASQDVSIAVAWYQQKPGKAPKLLIYSASYRYTGVPDRFSGSGSGTDFTLTISSLQPEDFAVYYCQQHYITPLTFGAGTKVEIKRTVAAPSVFIFPPSDEQLKSGTASVVCLLNNFYPREAKVQWKVDNALQSGNSQESVTEQDSKDSTYSLSSTLTLSKADYEKHKVYACEVTHQGLSSPVTKSFNRGEC
heavy: not shown
H292 Cytotox EC50 (pM) [1]: 0.7 pM
H292 Cytotox EC50 (pM) [2]: 0.7 pM
H292 Cytotox EC50 (pM) [3]: 0.7 pM

B2: TCE-27: anti-CD3 scFv + linker + anti-TROP2 HC wt, with anti-TROP2 LC wt (bispecific antibody)
light: DIQLTQSPSSLSASVGDRVSITCKASQDVSIAVAWYQQKPGKAPKLLIYSASYRYTGVPDRFSGSGSGTDFTLTISSLQPEDFAVYYCQQHYITPLTFGAGTKVEIKRTVAAPSVFIFPPSDEQLKSGTASVVCLLNNFYPREAKVQWKVDNALQSGNSQESVTEQDSKDSTYSLSSTLTLSKADYEKHKVYACEVTHQGLSSPVTKSFNRGEC
heavy: EVQLVESGGGLVQPGGSLKLSCAASGFTFNKYAMNWVRQASGKGLEWVGRIRSKYNNYATYYADSVKDRFTISRDDSKNTAYLQMNSLKTEDTAVYYCVRHGNFGNSYISYWAYWGQGTLVTVSSGGGGSGGGGSGGGGSQTVVTQEPSFSVSPGGTVTLTCRSSTGAVTSGNYANWVQQTPGQAPRGLIGGTKFLAPGVPDRFSGSILGNKAALTITGAQADDESDYYCVLWYSNRWVFGGGTKLTVLGGGGSQVQLQQSGSELKKPGASVKVSCKASGYTFTNYGMNWVKQAPGQGLKWMGWINTYTGEPTYTDDFKGRFAFSLDTSVSTAYLQISSLKADDTAVYFCARGGFGSSYWYFDVWGQGSLVTVSSASTKGPSVFPLAPSSKSTSGGTAALGCLVKDYFPEPVTVSWNSGALTSGVHTFPAVLQSSGLYSLSSVVTVPSSSLGTQTYICNVNHKPSNTKVDKKVEPKSC
H292 Cytotox EC50 (pM) [1]: 0.5 pM

B3: TCE-29: anti-CD3 scFv wt + linker + anti-TROP2 (F108A) HC, with anti-TROP2 LC wt (bispecific antibody)
light: DIQLTQSPSSLSASVGDRVSITCKASQDVSIAVAWYQQKPGKAPKLLIYSASYRYTGVPDRFSGSGSGTDFTLTISSLQPEDFAVYYCQQHYITPLTFGAGTKVEIKRTVAAPSVFIFPPSDEQLKSGTASVVCLLNNFYPREAKVQWKVDNALQSGNSQESVTEQDSKDSTYSLSSTLTLSKADYEKHKVYACEVTHQGLSSPVTKSFNRGEC
heavy: not shown
HCT116 Cytotox EC50 (pM) [4]: 109 pM
H292 Cytotox EC50 (pM) [5]: 5 pM
CynoTROP2+ HEK293 cells Cytotox EC50 (pM) [6]: 0.2 pM

B4: TCE-30: anti-CD3 scFv (H101A) + linker + anti-TROP2 (F108A) HC, with anti-TROP2 LC wt (bispecific antibody)
light: DIQLTQSPSSLSASVGDRVSITCKASQDVSIAVAWYQQKPGKAPKLLIYSASYRYTGVPDRFSGSGSGTDFTLTISSLQPEDFAVYYCQQHYITPLTFGAGTKVEIKRTVAAPSVFIFPPSDEQLKSGTASVVCLLNNFYPREAKVQWKVDNALQSGNSQESVTEQDSKDSTYSLSSTLTLSKADYEKHKVYACEVTHQGLSSPVTKSFNRGEC
heavy: not shown
CynoTROP2+ HEK293 cells Cytotox EC50 (pM) [6]: 1 pM

B5: TCE-19: anti-CD3 scFv (W233A) + linker + anti-TROP2 HC wt, with anti-TROP2 LC wt (bispecific antibody)
light: DIQLTQSPSSLSASVGDRVSITCKASQDVSIAVAWYQQKPGKAPKLLIYSASYRYTGVPDRFSGSGSGTDFTLTISSLQPEDFAVYYCQQHYITPLTFGAGTKVEIKRTVAAPSVFIFPPSDEQLKSGTASVVCLLNNFYPREAKVQWKVDNALQSGNSQESVTEQDSKDSTYSLSSTLTLSKADYEKHKVYACEVTHQGLSSPVTKSFNRGEC
heavy: not shown
H292 Cytotox EC50 (pM) [3]: > 1000 pM

B6: TCE-33: anti-CD3 scFv + linker + anti-TROP2 (F108A) HC, with anti-TROP2 LC wt (bispecific antibody)
light: DIQLTQSPSSLSASVGDRVSITCKASQDVSIAVAWYQQKPGKAPKLLIYSASYRYTGVPDRFSGSGSGTDFTLTISSLQPEDFAVYYCQQHYITPLTFGAGTKVEIKRTVAAPSVFIFPPSDEQLKSGTASVVCLLNNFYPREAKVQWKVDNALQSGNSQESVTEQDSKDSTYSLSSTLTLSKADYEKHKVYACEVTHQGLSSPVTKSFNRGEC
heavy: EVQLVESGGGLVQPGGSLKLSCAASGFTFNKYAMNWVRQASGKGLEWVGRIRSKYNNYATYYADSVKDRFTISRDDSKNTAYLQMNSLKTEDTAVYYCVRHGNFGNSYISYWAYWGQGTLVTVSSGGGGSGGGGSGGGGSQTVVTQEPSFSVSPGGTVTLTCRSSTGAVTSGNYANWVQQTPGQAPRGLIGGTKFLAPGVPDRFSGSILGNKAALTITGAQADDESDYYCVLWYSNRWVFGGGTKLTVLGGGGSQVQLQQSGSELKKPGASVKVSCKASGYTFTNYGMNWVKQAPGQGLKWMGWINTYTGEPTYTDDFKGRFAFSLDTSVSTAYLQISSLKADDTAVYFCARGGFGSSYWYADVWGQGSLVTVSSASTKGPSVFPLAPSSKSTSGGTAALGCLVKDYFPEPVTVSWNSGALTSGVHTFPAVLQSSGLYSLSSVVTVPSSSLGTQTYICNVNHKPSNTKVDKKVEPKSC
HCT116 Cytotox EC50 (pM) [4]: 73 pM
H292 Cytotox EC50 (pM) [5]: 3 pM

B7: TCE-49 (bispecific antibody)
light chain (anti-TROP2 LC wt): DIQLTQSPSSLSASVGDRVSITCKASQDVSIAVAWYQQKPGKAPKLLIYSASYRYTGVPDRFSGSGSGTDFTLTISSLQPEDFAVYYCQQHYITPLTFGAGTKVEIKRTVAAPSVFIFPPSDEQLKSGTASVVCLLNNFYPREAKVQWKVDNALQSGNSQESVTEQDSKDSTYSLSSTLTLSKADYEKHKVYACEVTHQGLSSPVTKSFNRGEC
heavy chain (anti-CD3 scFv N236A + linker + anti-TROP2 F108A HC): not shown
notes: also called TCE-49: anti-CD3 scFv (N236A) + linker + anti-TROP2 (F108A) HC, with anti-TROP2 LC wt
EC50 [7]: 230 pM
EC50 [8]: 870 pM

B8: TCE-26: anti-CD3 scFv (F240A) + linker + anti-TROP2 HC wt, with anti-TROP2 LC wt (bispecific antibody)
light: DIQLTQSPSSLSASVGDRVSITCKASQDVSIAVAWYQQKPGKAPKLLIYSASYRYTGVPDRFSGSGSGTDFTLTISSLQPEDFAVYYCQQHYITPLTFGAGTKVEIKRTVAAPSVFIFPPSDEQLKSGTASVVCLLNNFYPREAKVQWKVDNALQSGNSQESVTEQDSKDSTYSLSSTLTLSKADYEKHKVYACEVTHQGLSSPVTKSFNRGEC
heavy: not shown
H292 Cytotox EC50 (pM) [3]: 20 pM

B9: TCE-28: anti-CD3 scFv + linker + anti-TROP2 HC wt, with anti-TROP2 LC wt (bispecific antibody)
light: DIQLTQSPSSLSASVGDRVSITCKASQDVSIAVAWYQQKPGKAPKLLIYSASYRYTGVPDRFSGSGSGTDFTLTISSLQPEDFAVYYCQQHYITPLTFGAGTKVEIKRTVAAPSVFIFPPSDEQLKSGTASVVCLLNNFYPREAKVQWKVDNALQSGNSQESVTEQDSKDSTYSLSSTLTLSKADYEKHKVYACEVTHQGLSSPVTKSFNRGEC
heavy: not shown
H292 Cytotox EC50 (pM) [1]: 2.1 pM

B10: TCE-48 (bispecific antibody)
light chain (anti-TROP2 LC wt): DIQLTQSPSSLSASVGDRVSITCKASQDVSIAVAWYQQKPGKAPKLLIYSASYRYTGVPDRFSGSGSGTDFTLTISSLQPEDFAVYYCQQHYITPLTFGAGTKVEIKRTVAAPSVFIFPPSDEQLKSGTASVVCLLNNFYPREAKVQWKVDNALQSGNSQESVTEQDSKDSTYSLSSTLTLSKADYEKHKVYACEVTHQGLSSPVTKSFNRGEC
heavy chain (anti-CD3 scFv L232A + linker + anti-TROP2 F108A HC): not shown
notes: also called TCE-48: anti-CD3 scFv (L232A) + linker + anti-TROP2 (F108A) HC, with anti-TROP2 LC wt
EC50 [7]: 360 pM
EC50 [8]: 1300 pM

B11: TCE-24: anti-CD3 scFv (W238A) + linker + anti-TROP2 HC wt, with anti-TROP2 LC wt (bispecific antibody)
light: DIQLTQSPSSLSASVGDRVSITCKASQDVSIAVAWYQQKPGKAPKLLIYSASYRYTGVPDRFSGSGSGTDFTLTISSLQPEDFAVYYCQQHYITPLTFGAGTKVEIKRTVAAPSVFIFPPSDEQLKSGTASVVCLLNNFYPREAKVQWKVDNALQSGNSQESVTEQDSKDSTYSLSSTLTLSKADYEKHKVYACEVTHQGLSSPVTKSFNRGEC
heavy: not shown
H292 Cytotox EC50 (pM) [3]: > 1000 pM

B12: TCE-35: anti-CD3 scFv wt + linker + anti-TROP2 (D109A) HC, with anti-TROP2 LC wt (bispecific antibody)
light: DIQLTQSPSSLSASVGDRVSITCKASQDVSIAVAWYQQKPGKAPKLLIYSASYRYTGVPDRFSGSGSGTDFTLTISSLQPEDFAVYYCQQHYITPLTFGAGTKVEIKRTVAAPSVFIFPPSDEQLKSGTASVVCLLNNFYPREAKVQWKVDNALQSGNSQESVTEQDSKDSTYSLSSTLTLSKADYEKHKVYACEVTHQGLSSPVTKSFNRGEC
heavy: not shown
H292 Cytotox EC50 (pM) [5]: 1 pM
CynoTROP2+ HEK293 cells Cytotox EC50 (pM) [6]: 0.1 pM

B13: TCE-32: anti-CD3 scFv (F240A) + linker + anti-TROP2 (F108A) HC, with anti-TROP2 LC wt (bispecific antibody)
light: DIQLTQSPSSLSASVGDRVSITCKASQDVSIAVAWYQQKPGKAPKLLIYSASYRYTGVPDRFSGSGSGTDFTLTISSLQPEDFAVYYCQQHYITPLTFGAGTKVEIKRTVAAPSVFIFPPSDEQLKSGTASVVCLLNNFYPREAKVQWKVDNALQSGNSQESVTEQDSKDSTYSLSSTLTLSKADYEKHKVYACEVTHQGLSSPVTKSFNRGEC
heavy: not shown
HCT116 Cytotox EC50 (pM) [4]: > 3000 pM
CynoTROP2+ HEK293 cells Cytotox EC50 (pM) [6]: 5 pM
